Test results as given in publication PMC12379375.

Molecular target: recombinant CgDM9CP-6 (DM9 domain containing protein 6 of Crassostrea gigas), His tag (Crassostrea gigas)
Assay: BLI

Kd: 3.81 µM
Substance: recombinant Cg14-3-3ε (14-3-3 epsilon of Crassostrea gigas), GST tag (natural protein)
